{
  "source": "the RNAGym collection of RNA variant scans (doi:10.1073/pnas.2313332121)",
  "parents": {"B1": {"name": "TPR t1 (parent)", "chain": "GACCAAUCUGCCCUCAGAGCUCGAGAACAUCUUCGGAUGCAGAGGAGGCAGGCUUCGGUGGCGCGAUAGCGCCAACGUCCUCAACCUCCAAUGCAUCCCACCACAUGAUGAUGCCUGAAGAGCCUUGGUUUUUUG"}},
  "data": [
    {"variants_of": "B1", "test": "polymerase ribozyme fitness, log enrichment relative to wild type (log ratio); higher = more active; in vitro selection for triplet polymerase activity", "in_short": "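PCR was used to build mutant libraries for each subunit of a heterodimeric triplet polymerase ribozyme, which were then transcribed. A single in vitro selection round, in triplicate, used a frozen incubation at −7 °C and recovered extended constructs by gel excision, streptavidin beads and RT-PCR. Fitness is the logarithm of genotype enrichment relative to wild-type enrichment, averaged over replicates with inverse-variance weights. The logarithm is base 2, and after Illumina sequencing only genotypes with ≥10 input reads and ≥1 read per output were kept.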", "values": [
      {"variant": "GACCAAUCUGCCCACAGAGCUCGAGAACAUCUUCGGAUGCAGAGGAGGCAGGCUUCGGUGGCGCGAUAGCGCCAACGUCCUCAACCUCCAAUGCAUCCCACCACAUGAUGAUGCCUGAACAGCCUUGGUUUUUUG", "polymerase ribozyme fitness (log ratio)": 0.0767},
      {"variant": "GACCAAUCUGCCCCCAGAGCUCGAGGACAUCUUCGGAUGCAGAGGAGGCGGCCUUCGGUGGCGCGAUAGCGCCAACGUCCUCAACCUCCAAUGCAUCCCACCACACGAUGAUGCCUAAAGAGCCUUGGUUUUUUG", "polymerase ribozyme fitness (log ratio)": -5.87},
      {"variant": "GACCAAUCUGCCCACAGAGCUCGAGAACAUCUUCGGAUGCAGAGGAGGCAGGCUUCGGUGGCGCGAUAGCGCCAACGUCCUCAACCUCCAAUGCAUCCCACCACAUGAUGAUGCCUGAAGAGCCUUUGUUUUUUG", "polymerase ribozyme fitness (log ratio)": -3.57},
      {"variant": "GACCAAUCUGCCCACAGAGCUCGAGAACAUCUUCGGAUGCAGAGGAGGCAGGCAUCGGUGGCGCGAUAGCGCCAACGUCCUCAACCUCCAAUGCAUCCCACCACAUGAUGAUGCCUGAAGAGCCUUGGUGUUUUG", "polymerase ribozyme fitness (log ratio)": -4.16},
      {"variant": "GACCAAUCUGCCCACAGAGCUCGAGAACAUCUUCGGAUGCAGAGGAGGCAGGCUUCGGUGGCGCGAUAGCGCCAACGCCCUCAACCUCCAAUGCAUCCCACCACAUGAUGAUGCCUGAAGAGCCUUGGUUUUUUG", "polymerase ribozyme fitness (log ratio)": -2.86},
      {"variant": "GACCAAUCUGCCCACAGAGCUCGAGAACAUCCUCGGAUGCAGAGGAGGCAGGCUUCGGUGGCGCGAUAGCGCCAACGUCCUAAACCUCCAAUGCAUCCCACCACAUGAUGAUGCCUGAAGAGCCUUGGUUUUUUG", "polymerase ribozyme fitness (log ratio)": -3.24},
      {"variant": "GACCAAUCUGCCCACAGAGCUCGAGAACAUCUUCGGAUGCAGAGGAGGCAGGCUUCGGUGGCGCGAUAGCGCCAACGUCCUCAACCUCCAAUGCAUCCCACCACAUGAUGAUGCCUGAAGAACCUUGGUUUUUUG", "polymerase ribozyme fitness (log ratio)": -1.5},
      {"variant": "GACCAAUCUGCCCACAGAGCACGAGAACAGCUUCGGAUGCAGAGGAGGCAGGCUUCGCUGGCGCGAUAGCGCCAAUGUCCUCAACCUCCAAUGCAUCCCACCACAUGAUGACGCCUGCAGAGCCUUGGUUUUUUG", "polymerase ribozyme fitness (log ratio)": -5.04},
      {"variant": "GACCAAUCUGCCCACAGAGCUCGAGAACAUCUUCGGAUGCAGAGGAGGCAGGCAUCGGUGGCGCGAUAGCGCCAACGUCCUCAACCUCCAAUGCAUCCCACCACAUGAUGAUGCCUGAAGAGCCUUGGUUUUUUG", "polymerase ribozyme fitness (log ratio)": -2.74},
      {"variant": "GACCAAUCUGCCCACAGAGCUCGAGAACAUCUGCGGUUGCAUAGGAGGCAGGCUUCGGUGCCGCGAUAGCGCCAACGUCCUCAACCUCCAAUGCAUCCCACCACAUGAAGAUGCCUGAAGAGCCUUGGUUUUUUG", "polymerase ribozyme fitness (log ratio)": -6.69},
      {"variant": "GACCAAUCUGCCCCCAGGGCCCGAGAACAUCUUCGGAUGCAGAGGAGGCAGGCUUCGGUGGCGCGAUAUCGCCAACGUCCUCAACCUCCAAUGCAUCCCACCCCAUGAUGAUGCUUGAAGAGCCUUGGUUUUUUG", "polymerase ribozyme fitness (log ratio)": -5.98},
      {"variant": "GACCAAUCUGCCCCCAGGGCUCGAGAACAUCUUCGGAUGCAGAGGAGGGAGGCUUCGGUGACGCGAUAACGCCAACGUCCUCAACCUCCAAUGCAUCCCACCACAUGAUGAUACCUGAAGAGCCUUGGUUUUUUG", "polymerase ribozyme fitness (log ratio)": -5.84},
      {"variant": "GACCAAUCUGCCCACAGAGCUCGAGAACAUCUUCGGAUGCAGAGGAGGCAGGCUUCGGUGGCGCGAUAGCGCCAACGUCCUCAACCUCCAAUACAUCCCACUACAUGAUGAUGCCUGAAGAGCCUUGGUUUUUUG", "polymerase ribozyme fitness (log ratio)": -4.36},
      {"variant": "GACCAAUCUGCCCACAGAGCUCGAGAACAUCUUCGGAUGCAGAGGAGGCAGGCUUCGGUGGCGCGAUAGCGCCAACGUCCUCAACCUCCAAUGCAUCCCACCACAUGAUGAGGCCUGAAGAGCCUUGGUUUUUUG", "polymerase ribozyme fitness (log ratio)": -0.736},
      {"variant": "GACCAAUCUGCCCCCAGAGCUCGAGAACAUCUUCGGAUGCAGAGGAGGCAGGCUUCGGUGGCGCGAUAGCGCCAACGUCCUCAACCUCCCAUGCAUCCCACCACAUGAUGAUGCCUGAAGAGCCUUGGUUUUUUG", "polymerase ribozyme fitness (log ratio)": -3.39},
      {"variant": "GACCAAUCUGCCCCCAGAGCUCGAGAACAUCUUCGGAUGCAGAGGAGGCAGGCUUCGGUGGCGCGAUAGCGCCAACGUCCUCACCCUCCAAUGCAUCCCACCACAUGAUGAUGCCUGAAGAGCCUUGGUUUUUUG", "polymerase ribozyme fitness (log ratio)": -2.42},
      {"variant": "GACCAAUCUGCCCCCAGAGCUCGAGAACAUCUUCGGAUGCAGAGGAGGCAGGCUUCGGUGGCGCGUUAGCGCCAACGUCCUCAACCUCCAAUGCAUCCCACCACAUGAUGAUGCCUGAAGAGCCUUGGUUUUUUG", "polymerase ribozyme fitness (log ratio)": -3.21},
      {"variant": "GACCAAUCUGCCCCCAGAGCUCGAGAUCAUCUUCGGAUGCAGAUGAGGAAGGCUUCGGUGGCGCGAUAGCGCCAACGUCCUCAACCUCCAAUGUAUCCCACCACAUGAUGAUGCCUCAAGAGCCUUCGUUUUUUG", "polymerase ribozyme fitness (log ratio)": -7.98},
      {"variant": "GACCAAUCUGCCCCCAGAGCUCGAGAACAUCUUCGGAUGCAGAGGAGGCAGGCUUCGGUGGCGCGAUAGCGCCAACGUCCUCCACCUCCAAUGCAUCCCACCACAUGAUGAUGCCUGAAGAGCCUUGGUUUUUUG", "polymerase ribozyme fitness (log ratio)": -2.26},
      {"variant": "GACCAAUCUGCCCACAGAGCUCGAGAACAACUUCGGAUGCAGAGGAGGCAGGCUUCGGUGGCGCGUUAUCGCCAACGUCCUCAACCUCCAAGGAAUCCCACCACAUGAUGAUGCCUCAAGAGCCUUGGUUUUUUG", "polymerase ribozyme fitness (log ratio)": -6.34},
      {"variant": "GACCAAUCUGCCCACAGAGCUCGAGAACAUCUUCGGAUGCAGAGGAGGCAGGCUUCGGAGGCGCGAUAGCGCCAACGUCCUCAACCUCCAGUGCAUCCCACCACAUGAUGAUGCCUGAAGAGCCUUGGUUUUUUG", "polymerase ribozyme fitness (log ratio)": -4.05}
    ]}
  ]
}
